Experimental data taken from patent US20260250410A1 (SICHUAN HUIYU PHARMACEUTICAL, published 2026).

B1: SB9 (antibody, V domains shown)
VH: DVKLVESGGGLVKPGGSLKLSCAASGFTFSSFTMSWVRQTPEKRLEWVATISSSGSYTYYPDSVKGRFTISRDNAKNTLYLQMSSLKSEDTAMYYCTSPDYYGRSYGYFDYWGQGTTLTVSS
VL: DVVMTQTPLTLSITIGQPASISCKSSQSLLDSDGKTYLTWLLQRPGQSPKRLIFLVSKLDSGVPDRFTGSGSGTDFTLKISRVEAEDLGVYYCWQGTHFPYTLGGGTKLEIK
notes: single B cell antibody, expressed in CHO
B2: 1CP-117-MMAE (antibody, human IgG1, kappa, V domains shown)
VH: QVQLVQSGSELKKPGASVKVSCKASGYTLTDFSMHWVRQAPGQGLEWMGWINTETGAPTYADDFKGRFVLSLDTSVSTAYLQISSLKAEDTAVYYCSRGRDYDPHFDYWGQGTLVTVSS
VL: EIVLTQSPATLSLSPGERATLSCRASQSISDFLHWYQQKPGQSPRLLIKYASQSISGIPARFSGSGSGSDFTLTISSVEPEDFAVYYCQSAHSFPYTFGQGTKLEIKR
modifications: vc-MMAE coupled after reduction, sites not stated; DAR 4.8
B3: 1CP-152-MMAE (antibody, human IgG1, kappa, V domains shown)
VH: EVQLVESGGGLVQPGRSLRLSCTTSGLTFTHYHMSWVRQAPGKGLEWVAIIRNKAYGYTTDYSASVRGRFTISRDDSKSILYLQMNSLKTEDTAVYYCVREGGYGYDGTFAYWGQGTLVTVSS
VL: DIQMTQSPSSLSASVGDRVTITCRASESVDNYGISFMNWFQQKPGQAPKLLIYAASNQGSGVPSRFSGSGSGTDFTLTISSMQPEDFATYYCQQSKEVPRTFGGGTKVEIKR
modifications: vc-MMAE coupled after reduction, sites not stated; DAR 4.5
B4: SB8 (antibody, V domains shown)
VH: QVTLKESGPGILKPSQTLSLTCSFSGFSLSTSGVGVGWIRQPSGKGLEWLAHIWWDDEKYYNPSLKSHFTISKDTSRNQVFLKITSVDTADTATYYCVKEGDGMDYWGQGTSVTVSS
VL: QAVVTQESALTTSPGETVTLTCRSSTGAVATSNYANWVQEKPDHLFTGLIGGTNNRVPGVPARFSGSLIGDKAALTITGAQTEDEAIYFCALWYSNHWVFGGGTKLTVL
notes: as for B1
B5: SB5 (antibody, V domains shown)
VH: QVQLRESGPGLVAPSQSLSITCTVSGFSLTDFGVNWVRQPPGKGLEWLGIIWANGRIEYNSALKSRLSISKDNSRSQVFLKLNSLQTDDTARYYCARDHDYDVEAMDYWGQGTSVTVSA
VL: QIVLTQSPAIKSASPGEKVTMTCSASSSVIYMHWYQQKSGSSPKRWIYDTSKLASGVPVRFSGSGSGTSYSLTISTMEAEDAATYYCQQWSSYPPTFGGGTKVEIK
notes: as for B1

Tests used:
[1] = target: T1, human CDCP1 on tumor cells (human, UniProt Q9H5V8 30-836); experiment: flow cytometry, MDA-MB-231 cells, 1.5 µg/ml
T1 construct: whole, on cells; cell line is named under assay or readout
T1 sequence (looked up): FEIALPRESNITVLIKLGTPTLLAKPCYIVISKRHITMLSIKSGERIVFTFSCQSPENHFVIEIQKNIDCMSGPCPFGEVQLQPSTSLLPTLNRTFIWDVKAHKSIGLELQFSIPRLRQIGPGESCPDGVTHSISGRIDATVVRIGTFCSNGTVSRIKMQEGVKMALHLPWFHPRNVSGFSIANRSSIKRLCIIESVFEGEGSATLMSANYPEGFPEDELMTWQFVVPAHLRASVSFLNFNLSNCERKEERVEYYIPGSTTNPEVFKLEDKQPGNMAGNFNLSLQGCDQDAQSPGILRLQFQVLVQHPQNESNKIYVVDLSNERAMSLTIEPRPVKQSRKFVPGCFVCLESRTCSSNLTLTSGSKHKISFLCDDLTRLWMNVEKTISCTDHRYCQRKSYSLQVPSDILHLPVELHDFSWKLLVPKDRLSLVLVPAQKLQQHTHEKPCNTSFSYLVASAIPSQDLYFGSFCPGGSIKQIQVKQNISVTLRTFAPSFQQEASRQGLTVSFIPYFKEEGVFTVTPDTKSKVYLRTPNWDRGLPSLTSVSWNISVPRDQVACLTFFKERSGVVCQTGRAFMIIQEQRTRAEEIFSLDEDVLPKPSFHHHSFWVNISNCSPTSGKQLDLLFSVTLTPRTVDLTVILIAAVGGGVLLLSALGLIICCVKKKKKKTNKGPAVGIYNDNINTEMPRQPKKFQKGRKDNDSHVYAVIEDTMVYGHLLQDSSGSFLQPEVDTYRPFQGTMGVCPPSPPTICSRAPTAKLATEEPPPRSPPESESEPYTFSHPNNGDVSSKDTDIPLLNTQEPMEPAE
Protocol: Flow cytometry was used to detect the binding capacity of antibody to tumor cells. MDA-MB-231 cells were subjected to digestion with 5 mM EDTA, centrifuged, and counted, the cells were resuspended with FACS buffer (PBS+2% FBS). Cell density was adjusted to 4×10⁵/ml, 50 μL (2×10⁴ tumor cells) were added per well, an Fc blocker (Human TruStain FcX™, Biolegend, 422302) was added for blocking at room temperature for 10 mins, then the antibody to be tested was added at a final concentration of 1.5 μg/ml. The mixture was incubated out at 4° C. for 30 mins, centrifuged and washed, a secondary antibody (PE anti-human IgG Fc Antibody, Biolegend, 410708) was added for incubation, and then detection was performed using a flow cytometer. Geo-MFI was used as the preliminary criterion for determining antibody-cell binding.

[2] = target: T1, human CDCP1 on tumor cells; experiment: cell-based or functional assay
[3] = target: T1, human CDCP1 on tumor cells; experiment: cell-based or functional assay; remark: listed apart in the source
[4] = target: T2, HuCDCP1-B (human, UniProt Q9H5V8 343-667); experiment: ELISA, coated antigen
T2 construct: range 343-667; expressed in HEK-293T, purified by Fc/his tag; also called human CDCP1-B; membrane-proximal region of CDCP1; not shown: Fc or his tag
T2 sequence (looked up): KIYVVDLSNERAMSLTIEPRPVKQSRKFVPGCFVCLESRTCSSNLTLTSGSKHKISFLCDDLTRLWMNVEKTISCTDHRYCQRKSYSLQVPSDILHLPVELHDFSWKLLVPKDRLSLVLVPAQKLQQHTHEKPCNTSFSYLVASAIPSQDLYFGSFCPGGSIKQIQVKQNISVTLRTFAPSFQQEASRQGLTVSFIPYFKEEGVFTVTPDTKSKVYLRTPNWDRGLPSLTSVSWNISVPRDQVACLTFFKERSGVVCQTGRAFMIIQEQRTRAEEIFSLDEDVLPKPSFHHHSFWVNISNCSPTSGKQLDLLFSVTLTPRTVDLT
Protocol: (§1) The candidate antibodies obtained from Example 6 were subjected to gene cloning, constructed into an expression vector for a small amount of expression in CHO cells, and purified with an Fc affinity column (AT Protein A Diamond Plus. No. AA402312). Antibody purity was analyzed by HPLC and determined by Nanodrop. High-throughput affinity assay was carried out for a small amount of antibodies by Caterra. […] At the same time, 2 μg/ml antigen human CDCP1-C and 2 μg/ml human CDCP1-B were used for coating, and the antigen-antibody binding capacity was tested by ELISA for verification.

[5] = target: T3, HuCDCP1-C (human, UniProt Q9H5V8 30-667); experiment: ELISA, coated antigen
T3 construct: range 30-667; expressed in HEK-293T, purified by Fc/his tag; also called human CDCP1-C; full-length extracellular domain of human CDCP1; not shown: Fc or his tag
T3 sequence (looked up): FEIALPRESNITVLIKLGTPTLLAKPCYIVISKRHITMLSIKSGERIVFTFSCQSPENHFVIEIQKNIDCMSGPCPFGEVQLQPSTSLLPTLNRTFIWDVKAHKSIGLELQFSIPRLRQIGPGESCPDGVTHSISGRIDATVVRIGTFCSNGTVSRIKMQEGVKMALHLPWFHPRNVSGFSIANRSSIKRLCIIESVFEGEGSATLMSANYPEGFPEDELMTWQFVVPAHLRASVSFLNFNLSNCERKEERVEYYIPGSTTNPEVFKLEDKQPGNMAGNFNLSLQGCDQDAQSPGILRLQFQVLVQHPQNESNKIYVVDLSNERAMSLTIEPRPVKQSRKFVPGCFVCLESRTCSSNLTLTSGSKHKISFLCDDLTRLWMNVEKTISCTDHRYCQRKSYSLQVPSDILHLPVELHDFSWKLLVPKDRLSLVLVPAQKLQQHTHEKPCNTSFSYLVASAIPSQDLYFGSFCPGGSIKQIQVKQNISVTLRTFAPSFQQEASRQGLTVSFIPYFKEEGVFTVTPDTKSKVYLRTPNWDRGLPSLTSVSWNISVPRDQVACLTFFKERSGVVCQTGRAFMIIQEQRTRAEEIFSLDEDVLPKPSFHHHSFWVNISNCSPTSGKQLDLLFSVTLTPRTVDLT
Protocol: as §1

[6] = target: T4, huCDCP1-his (human, UniProt Q9H5V8 30-667, limits assumed); experiment: SPR (Caterra), antigen immobilized
T4 construct: also called human CDCP1 antigen; not shown: his tag
T4 sequence (looked up): T3 sequence (looked up)
Protocol: as §1

Binder	binding result [1]	IC50 (nM), killing of HCC1806 cells (120 h), CellTiter-Glo [2]	IC50 (nM), killing of HCT116 cells (120 h), CellTiter-Glo [3]	further results
B1	binds	–	–	–
B2	–	0.894 nM	1.51 nM	–
B3	–	0.734 nM	1.27 nM	–
B4	binds	–	–	–
B5	–	–	–	EC50 [4]: 0.208 nM; EC50 [5]: 0.413 nM; Kd [6]: 0.835 nM
